Results published in patent publication US20210299158A1 (NORTHWESTERN UNIVERSITY, published 2021).
Ends that are not written are not given here. * marks the point of attachment. Biotin = O=C1N[C@H]2[C@H](CS[C@H]2CCCCC(=O)*)N1

T1: Collagen type III (human) (human, UniProt P02461 154-1221)
T1 construct: Coated on plates; also called collagen III; COL III
T1 sequence (looked up): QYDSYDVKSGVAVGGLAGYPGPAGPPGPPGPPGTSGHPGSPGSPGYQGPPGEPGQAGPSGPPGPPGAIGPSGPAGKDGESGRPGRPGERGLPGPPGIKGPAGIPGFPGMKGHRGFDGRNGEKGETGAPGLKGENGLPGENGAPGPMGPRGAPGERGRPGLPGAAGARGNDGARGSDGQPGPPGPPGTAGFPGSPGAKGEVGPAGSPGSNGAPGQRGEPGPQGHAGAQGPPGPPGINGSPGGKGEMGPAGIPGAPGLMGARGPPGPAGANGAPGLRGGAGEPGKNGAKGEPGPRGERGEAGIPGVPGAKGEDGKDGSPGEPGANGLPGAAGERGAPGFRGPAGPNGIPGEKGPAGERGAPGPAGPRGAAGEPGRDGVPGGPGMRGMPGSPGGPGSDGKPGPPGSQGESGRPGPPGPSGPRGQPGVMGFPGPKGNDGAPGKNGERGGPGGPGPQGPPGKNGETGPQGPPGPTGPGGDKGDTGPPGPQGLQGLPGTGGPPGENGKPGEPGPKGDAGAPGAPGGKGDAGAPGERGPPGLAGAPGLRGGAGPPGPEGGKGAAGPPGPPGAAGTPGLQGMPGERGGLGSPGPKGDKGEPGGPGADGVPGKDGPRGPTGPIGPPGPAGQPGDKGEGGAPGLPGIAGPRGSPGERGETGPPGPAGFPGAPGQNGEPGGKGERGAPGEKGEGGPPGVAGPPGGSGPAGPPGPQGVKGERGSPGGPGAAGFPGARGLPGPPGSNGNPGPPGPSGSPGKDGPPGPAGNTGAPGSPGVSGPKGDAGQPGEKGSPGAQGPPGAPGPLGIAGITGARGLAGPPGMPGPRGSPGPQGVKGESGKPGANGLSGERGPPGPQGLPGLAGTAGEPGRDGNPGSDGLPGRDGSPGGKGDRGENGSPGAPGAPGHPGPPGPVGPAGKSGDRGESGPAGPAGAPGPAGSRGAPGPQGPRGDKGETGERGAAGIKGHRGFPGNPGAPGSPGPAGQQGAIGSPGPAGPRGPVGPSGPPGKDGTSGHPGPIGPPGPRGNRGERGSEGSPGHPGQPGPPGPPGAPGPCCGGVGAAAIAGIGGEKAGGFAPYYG


Columns and labels:
[1] = biological target: T1, Collagen type III (human); assay: plate binding, biotinylated peptide on coated protein, streptavidin-594 fluorescence
Description: (§1) Peptide and ECM Binding Specificity. Collagens I, II, III, and IV, fibronectin, laminin, and Matrigel were coated onto 96-well black plates at 10 μg/cm². Biotinylated CBP or CBPi were added to coated plates at 0, 1, 10, 100, and 1000 μM overnight at 4° C., after which the plates were washed three times with PBS. Fluorescent streptavidin-594 (4 μg/mL) was added to each well and incubated at room temperature for 2 h, then thoroughly washed with PBS. The plates were read with a fluorescence microplate reader for fluorescence intensity (Ex 591 nm, Em 614 nm). All data were normalized to the background fluorescence intensity of Streptavidin-594 alone directed at each coated protein.
(§2) CBP Selectively Binds to ECM with High Specificity to Collagen IV. […] Bound peptides were subsequently probed with fluorescently labeled streptavidin. CBP, but not CBPi, bound specifically to collagen IV coated surfaces with high relative affinity, and to collagen I coated surfaces to a much lesser extent. […] Neither CBP nor CBPi binds to collagen II, collagen III, or fibronectin.

[2] = biological target: T2, Fibronectin from human plasma (human, UniProt P02751-8 32-2296, limits assumed); assay: as above
T2 construct: Coated on plates; also called FN
Description: as §1, §2

Collagen type IV (mouse) [3] = biological target: T3, Collagen type IV (mouse) (mouse, UniProt P02463 28-1669; P08122 26-1707); assay: plate binding, biotinylated CBP at 100 µM on coated collagen IV, streptavidin-594 fluorescence normalised to background
T3 construct: Coated on plates at 10 ug/cm^2; the chains come from general knowledge; also called collagen IV; COL IV
Description: as §1, §2

Collagen type IV (mouse) [4] = biological target: T3, Collagen type IV (mouse); assay: plate binding, biotinylated CBP at 1000 µM on coated collagen IV, streptavidin-594 fluorescence normalised to background
Description: as §1, §2

[5] = biological target: Collagen IV (surface coated, Example 2); assay: Cy5 fluorescence after 24 hour incubation on surface coated collagen IV; conjugate at 30 mg/ml; reference is the scrambled CBPi-Hep(Cy5) conjugate
Collagen type I (rat) = biological target: T4, Collagen type I (rat) (rat, UniProt P02454 152-1207; P02466 86-1125); assay: plate binding, biotinylated peptide on coated protein, streptavidin-594 fluorescence
T4 construct: Coated on plates at 10 ug/cm^2; the chains come from general knowledge; also called collagen I; COL I
Description: as §1, §2

Collagen type IV (mouse) [6] = biological target: T3, Collagen type IV (mouse); assay: as above
Description: as §1, §2

T3 sequence (P02463 28-1669, chain 1 of 2): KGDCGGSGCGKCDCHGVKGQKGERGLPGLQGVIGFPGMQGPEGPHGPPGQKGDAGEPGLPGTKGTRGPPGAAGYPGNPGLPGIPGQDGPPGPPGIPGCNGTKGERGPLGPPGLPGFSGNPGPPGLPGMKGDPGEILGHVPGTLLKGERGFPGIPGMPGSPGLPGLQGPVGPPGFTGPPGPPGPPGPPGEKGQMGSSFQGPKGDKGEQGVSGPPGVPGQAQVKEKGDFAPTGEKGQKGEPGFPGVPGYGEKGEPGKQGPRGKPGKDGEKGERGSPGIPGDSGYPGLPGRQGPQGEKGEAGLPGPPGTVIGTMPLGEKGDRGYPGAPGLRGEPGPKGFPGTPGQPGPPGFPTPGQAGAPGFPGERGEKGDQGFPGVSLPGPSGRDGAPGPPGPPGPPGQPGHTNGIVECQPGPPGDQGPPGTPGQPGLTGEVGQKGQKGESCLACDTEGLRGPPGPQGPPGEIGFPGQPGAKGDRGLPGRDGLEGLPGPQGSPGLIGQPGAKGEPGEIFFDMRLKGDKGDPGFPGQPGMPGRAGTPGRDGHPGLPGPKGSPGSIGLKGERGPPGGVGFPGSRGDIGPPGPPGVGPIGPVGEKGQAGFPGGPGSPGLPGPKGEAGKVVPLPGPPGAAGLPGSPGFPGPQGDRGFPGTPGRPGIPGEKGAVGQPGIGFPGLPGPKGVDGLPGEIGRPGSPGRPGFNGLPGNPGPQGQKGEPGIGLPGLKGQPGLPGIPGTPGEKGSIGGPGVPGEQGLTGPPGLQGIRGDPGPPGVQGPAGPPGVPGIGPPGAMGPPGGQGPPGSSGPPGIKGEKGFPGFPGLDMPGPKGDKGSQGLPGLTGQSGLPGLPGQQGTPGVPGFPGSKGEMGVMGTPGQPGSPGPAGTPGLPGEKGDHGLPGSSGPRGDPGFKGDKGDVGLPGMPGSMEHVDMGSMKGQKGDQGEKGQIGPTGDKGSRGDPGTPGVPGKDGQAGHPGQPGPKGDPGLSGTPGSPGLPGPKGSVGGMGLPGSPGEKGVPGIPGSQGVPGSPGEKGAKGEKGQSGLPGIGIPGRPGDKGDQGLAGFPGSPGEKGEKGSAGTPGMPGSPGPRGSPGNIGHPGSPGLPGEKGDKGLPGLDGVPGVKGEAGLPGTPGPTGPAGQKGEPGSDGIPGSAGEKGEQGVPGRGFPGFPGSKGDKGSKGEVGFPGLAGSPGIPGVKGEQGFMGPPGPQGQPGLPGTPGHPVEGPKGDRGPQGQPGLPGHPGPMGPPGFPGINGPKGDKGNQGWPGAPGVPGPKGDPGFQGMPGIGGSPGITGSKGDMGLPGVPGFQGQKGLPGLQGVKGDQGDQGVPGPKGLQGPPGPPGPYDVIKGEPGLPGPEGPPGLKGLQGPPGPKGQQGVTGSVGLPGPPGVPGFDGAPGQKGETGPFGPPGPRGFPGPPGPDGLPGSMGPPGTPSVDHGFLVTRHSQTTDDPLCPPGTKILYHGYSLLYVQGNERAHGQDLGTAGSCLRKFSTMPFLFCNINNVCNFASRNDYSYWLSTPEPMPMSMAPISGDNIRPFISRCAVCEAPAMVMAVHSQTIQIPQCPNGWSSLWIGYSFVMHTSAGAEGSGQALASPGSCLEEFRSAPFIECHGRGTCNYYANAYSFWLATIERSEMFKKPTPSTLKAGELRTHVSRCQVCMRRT
T3 sequence (P08122 26-1707, chain 2 of 2): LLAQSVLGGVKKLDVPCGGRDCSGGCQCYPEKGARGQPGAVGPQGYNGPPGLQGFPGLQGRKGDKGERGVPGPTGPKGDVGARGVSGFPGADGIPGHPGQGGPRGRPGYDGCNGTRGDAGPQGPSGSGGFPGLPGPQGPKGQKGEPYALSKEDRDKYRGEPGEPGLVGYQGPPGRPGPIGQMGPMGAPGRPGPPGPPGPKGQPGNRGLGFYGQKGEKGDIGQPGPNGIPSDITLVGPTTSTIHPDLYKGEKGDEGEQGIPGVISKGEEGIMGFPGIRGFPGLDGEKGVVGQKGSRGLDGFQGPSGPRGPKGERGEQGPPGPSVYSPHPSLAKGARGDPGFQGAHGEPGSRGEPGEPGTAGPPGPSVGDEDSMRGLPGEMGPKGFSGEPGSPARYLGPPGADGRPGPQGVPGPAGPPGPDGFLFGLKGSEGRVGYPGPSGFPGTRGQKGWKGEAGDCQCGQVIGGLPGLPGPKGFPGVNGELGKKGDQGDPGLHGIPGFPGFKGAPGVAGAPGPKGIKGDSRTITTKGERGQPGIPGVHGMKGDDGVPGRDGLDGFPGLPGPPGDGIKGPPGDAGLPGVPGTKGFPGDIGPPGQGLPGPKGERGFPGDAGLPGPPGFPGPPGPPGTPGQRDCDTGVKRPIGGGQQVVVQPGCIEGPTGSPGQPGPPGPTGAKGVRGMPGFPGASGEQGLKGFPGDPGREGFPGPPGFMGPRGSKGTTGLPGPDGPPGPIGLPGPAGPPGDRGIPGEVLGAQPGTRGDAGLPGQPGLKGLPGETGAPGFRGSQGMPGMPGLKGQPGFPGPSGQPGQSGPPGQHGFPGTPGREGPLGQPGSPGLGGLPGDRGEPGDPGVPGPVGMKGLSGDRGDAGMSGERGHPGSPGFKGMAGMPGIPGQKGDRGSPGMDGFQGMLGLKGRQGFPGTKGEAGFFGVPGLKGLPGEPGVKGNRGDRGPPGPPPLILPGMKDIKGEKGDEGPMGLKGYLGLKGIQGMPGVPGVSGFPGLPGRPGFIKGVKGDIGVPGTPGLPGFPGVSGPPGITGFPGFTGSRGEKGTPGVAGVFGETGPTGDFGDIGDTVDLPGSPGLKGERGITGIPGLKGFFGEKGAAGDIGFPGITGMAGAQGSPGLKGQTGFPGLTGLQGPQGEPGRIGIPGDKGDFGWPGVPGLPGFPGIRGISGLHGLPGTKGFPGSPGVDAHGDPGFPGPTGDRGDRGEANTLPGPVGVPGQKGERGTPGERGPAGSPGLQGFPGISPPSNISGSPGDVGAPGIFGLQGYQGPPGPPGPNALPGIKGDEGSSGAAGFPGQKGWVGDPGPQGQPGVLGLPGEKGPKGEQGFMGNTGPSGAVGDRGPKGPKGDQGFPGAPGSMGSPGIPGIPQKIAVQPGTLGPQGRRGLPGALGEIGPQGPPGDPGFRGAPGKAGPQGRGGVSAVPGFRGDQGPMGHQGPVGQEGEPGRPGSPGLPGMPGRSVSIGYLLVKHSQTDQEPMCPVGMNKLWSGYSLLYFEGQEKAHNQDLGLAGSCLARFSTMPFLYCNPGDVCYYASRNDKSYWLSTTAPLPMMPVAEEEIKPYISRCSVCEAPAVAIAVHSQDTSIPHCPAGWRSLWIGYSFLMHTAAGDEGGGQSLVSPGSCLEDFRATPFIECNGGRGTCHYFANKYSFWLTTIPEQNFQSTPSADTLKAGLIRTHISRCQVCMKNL

Binder | binding result [1] | binding result [2] | fold increase in surface fluorescence intensity (Collagen type IV (mouse) [3]) [fold] | fold increase in surface fluorescence intensity (Collagen type IV (mouse) [4]) [fold] | fold binding against the scrambled CBPi control [5] [fold] | binding result (Collagen type I (rat)) | binding result (Collagen type IV (mouse) [6])
Biotin-CQDSETRTFY (also called biotinylated CBP) [Biotinylated collagen-binding peptide CBP (biotin-CQDSETRTFY)] | no binding (tested: 1000 µM) | no binding (tested: 1000 µM) | 3.85 | 12.1 |  |  | 
CQDSETRTFY (also: peptide conjugated by EDC/NHS to carboxyl groups of Cy5-labelled heparin (28 kD), attachment site not given here) [CBP-Hep(Cy5), improved batch (Heparin(Cy5)-CBP conjugate, 20 C, 10:1 molar ratio CBP:Hep-Cy5)] |  |  |  |  | 4 |  | 
Biotin-CDEFQRSTTY (also called biotinylated CBPi) [Biotinylated inactive, nonbinding peptide CBPi (biotin-CDEFQRSTTY)] | no binding (tested: 1000 µM) | no binding (tested: 1000 µM) |  |  |  | no binding (tested: 1000 µM) | no binding (tested: 1000 µM)
